The target in this assay is clathrin N-terminal domain (NTD) (UniProt Q00610). The experiment in a line: fluorescence polarisation + ITC. Background: Fluorescence polarisation rises when a labelled molecule tumbles more slowly, as on binding a larger partner.
Sequence of UniProt Q00610 (Q00610 1-364): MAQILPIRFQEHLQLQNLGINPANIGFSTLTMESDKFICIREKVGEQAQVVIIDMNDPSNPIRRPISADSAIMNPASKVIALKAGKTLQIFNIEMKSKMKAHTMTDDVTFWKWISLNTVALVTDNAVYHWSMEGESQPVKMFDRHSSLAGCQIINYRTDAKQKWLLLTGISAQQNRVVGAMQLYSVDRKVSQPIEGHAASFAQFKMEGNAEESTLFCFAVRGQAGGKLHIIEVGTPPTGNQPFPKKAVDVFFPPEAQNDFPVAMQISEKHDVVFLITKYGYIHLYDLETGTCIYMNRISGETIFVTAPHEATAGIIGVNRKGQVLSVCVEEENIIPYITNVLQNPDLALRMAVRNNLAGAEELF

For the substance “HURP_(832-846) phosphorylated peptide (pS839) (from UniProt Q15398 832-846)”, the fold increase in affinity against the wild-type peptide was found to be 20 fold.

The values are drawn from article doi:10.1101/2022.06.08.495335.
